Earlier results on 1 substance are cited in article PMC3081175.

pKd: −log10 of the molar value.

Broadly, the pKd is −log10 of the Kd, conventionally taken in molar units.

This data set deals with c-Met (Homo sapiens) (UniProt P08581).
UniProt P08581, sequence (P08581 25-932): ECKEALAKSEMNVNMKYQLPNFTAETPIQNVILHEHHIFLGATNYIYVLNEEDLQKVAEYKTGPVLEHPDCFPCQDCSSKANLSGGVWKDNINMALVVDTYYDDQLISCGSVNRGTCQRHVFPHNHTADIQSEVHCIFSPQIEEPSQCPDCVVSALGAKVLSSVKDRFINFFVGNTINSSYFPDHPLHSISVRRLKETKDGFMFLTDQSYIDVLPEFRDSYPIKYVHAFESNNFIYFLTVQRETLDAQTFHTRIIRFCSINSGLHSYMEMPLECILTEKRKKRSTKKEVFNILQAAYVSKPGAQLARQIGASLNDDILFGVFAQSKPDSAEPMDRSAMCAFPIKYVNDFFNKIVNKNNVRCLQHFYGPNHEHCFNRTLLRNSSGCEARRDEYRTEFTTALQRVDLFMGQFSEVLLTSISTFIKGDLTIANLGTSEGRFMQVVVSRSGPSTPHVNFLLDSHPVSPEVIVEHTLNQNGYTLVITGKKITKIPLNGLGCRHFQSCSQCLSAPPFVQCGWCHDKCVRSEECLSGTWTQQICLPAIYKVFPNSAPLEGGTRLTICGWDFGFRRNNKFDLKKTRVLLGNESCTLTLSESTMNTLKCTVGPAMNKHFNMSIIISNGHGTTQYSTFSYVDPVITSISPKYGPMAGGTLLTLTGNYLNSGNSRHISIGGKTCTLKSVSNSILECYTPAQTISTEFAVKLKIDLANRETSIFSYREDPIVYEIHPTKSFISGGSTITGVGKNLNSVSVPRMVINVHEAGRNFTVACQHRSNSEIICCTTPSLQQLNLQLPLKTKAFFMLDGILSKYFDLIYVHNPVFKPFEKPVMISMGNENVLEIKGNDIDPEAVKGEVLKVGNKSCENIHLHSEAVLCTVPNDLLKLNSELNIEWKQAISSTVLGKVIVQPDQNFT

For HGF (from UniProt P14210), the negative logarithm of the Kd (pKd) was 10.52.
